{"source": "patent US6933368", "molecules": {"B1": {"name": "humanized M195 antibody (antibody, INN chains, looked up, human IgG1, V domains shown)", "VH": "QVQLVQSGAEVKKPGSSVKVSCKASGYTFTDYNMHWVRQAPGQGLEWIGYIYPYNGGTGYNQKFKSKATITADESTNTAYMELSSLRSEDTAVYYCARGRPAMDYWGQGTLVTVSS", "VL": "DIQMTQSPSSLSASVGDRVTITCRASESVDNYGISFMNWFQQKPGKAPKLLIYAASNQGSGVPSRFSGSGSGTDFTLTISSLQPDDFATYYCQQSKEVPWTFGQGTKVEIK"}}, "target": "CD33 antigen (UniProt P20138)", "sequence (P20138 18-364 limits assumed)": "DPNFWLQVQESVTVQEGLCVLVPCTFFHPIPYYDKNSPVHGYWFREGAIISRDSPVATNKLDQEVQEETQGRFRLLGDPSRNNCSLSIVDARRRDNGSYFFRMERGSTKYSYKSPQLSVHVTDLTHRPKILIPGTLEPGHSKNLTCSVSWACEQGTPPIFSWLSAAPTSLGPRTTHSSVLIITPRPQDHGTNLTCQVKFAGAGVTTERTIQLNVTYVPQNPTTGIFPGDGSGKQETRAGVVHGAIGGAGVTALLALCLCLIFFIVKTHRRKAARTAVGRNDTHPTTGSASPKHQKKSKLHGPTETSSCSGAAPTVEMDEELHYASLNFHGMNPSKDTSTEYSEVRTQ", "experiment": "competitive binding against 125I-murine M195 on HL60 cells", "data": [{"molecule": "aglycosylated chimeric M195 antibody", "values": [{"measurement": "fold increase in binding affinity against the chimeric antibody", "value": 8, "unit": "fold"}]}, {"molecule": "murine M195 antibody", "values": [{"measurement": "Ka", "value": "2e+09", "unit": "M⁻¹"}]}, {"molecule": "B1", "values": [{"measurement": "fold increase in binding affinity against the chimeric (or murine) antibody", "value": 8, "unit": "fold"}]}]}
